Experiments:
Assay in all cases: SEC; Superose12 10/300 GL, lysis buffer for native purification, 0.4 ml/min; concentrated Ni2+-NTA eluate of GFP-perlucin (~20 mg/ml); peak fractions analysed by SDS-PAGE; sizes estimated against gel filtration standards (12 kDa - 2 MDa)
[1] = biological target: His-tagged GFP-perlucin derivative lacking 15 C-terminal amino acids (395 amino acids, 45 kDa) (Aequorea victoria | Haliotis laevigata) (UniProt P82596)
[2] = biological target: full length His-tagged GFP-perlucin (410 amino acids, 46.8 kDa) (Aequorea victoria | Haliotis laevigata) (UniProt P82596)
[3] = biological target: truncated His-tagged GFP-perlucin lacking 141 C-terminal amino acids (Aequorea victoria | Haliotis laevigata) (UniProt P82596)
[4] = biological target: truncated His-tagged GFP-perlucin lacking 145 C-terminal amino acids (Aequorea victoria | Haliotis laevigata) (UniProt P82596)

polypeptide chains in the complex (peak A, 395aa/410aa and truncated variants together) (polypeptide chains) [1]	polypeptide chains in the complex (peak A, 395aa/410aa and truncated variants together) (polypeptide chains) [2]	stoichiometry N (polypeptide chains) [3]	stoichiometry N (polypeptide chains) [4]	Substance
50	50	3 to 5		truncated His-tagged GFP-perlucin lacking 141 C-terminal amino acids (from UniProt P82596 1-14)
50	50		3 to 5	truncated His-tagged GFP-perlucin lacking 145 C-terminal amino acids (from UniProt P82596 1-10)

— PMC3463529
